According to the supplement of paper PMC10126150:
± gives the standard deviation of the averaged measurements.

Test system: ATP
Experiment: switch fluorescence ratio, 500 uM ATP over buffer (Cy3 cluster intensity, sum of 5 cycles each) (fold (ratio)); higher = stronger signal-on switching upon ATP binding; sequences stand for … in TCGTCGGCAGCGTCAGATGTGTATAAGAGACAGTTTTTTTTTTTTTTTTTTTTTTTTT…TC
Conditions: aptamer strand: ATP DNA aptamer (quencher-CACCTGGGGGAGTATTGCGGAGGAAGG + anchor), 100 nM annealed; ATP concentration: 500 uM
Method in brief: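 Cy3-labelled switching-strand clusters on a modified Illumina MiSeq flow-cell were annealed to 100 nM quencher-labelled ATP aptamer and imaged first in selection buffer, then after 15 min with 500 uM ATP at 22 °C. NaOH stripping and re-annealing separated each of five buffer/ATP cycles, and clusters outside 100-1000 RFU were excluded. The fluorescence ratio sums target-cycle Cy3 intensity over buffer-cycle Cy3 intensity per cluster and averages it per switch-domain sequence.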
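Further: ATP exposure 15 min at 22 °C before imaging.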

Sequence	switch fluorescence ratio
TACGCTATAA	2.824 ± 0.0042
ATCGGTGTGT	0.989 ± 0.045
CGGGTACCGC	1.05 ± 0.053
ATTAGGTTTC	1.01 ± 0.062
GAGAGTGGCA	0.988 ± 0.031
GAATTATCTA	0.996 ± 0.022
TGACAGTTAT	1.06 ± 0.038
TGGAATTAAC	1.02 ± 0.042
TCTCGACTCA	0.999 ± 0.02
ATAAATGCGG	1.02 ± 0.041
AGGTTATTAT	0.999 ± 0.029
ACATTATCCA	1.01 ± 0.0068
TTTCAATAAT	0.988 ± 0.023
GTATGGGAAA	1.04 ± 0.054
CGTGGATGCG	1.025 ± 0.0038
GGGGAATGCG	1.01 ± 0.0065
GAGGGTGTAG	0.988 ± 0.018
AGGGAAGAGA	1 ± 0.021
CGTGTGGTTC	1.02 ± 0.036
TTCGATAAGA	0.999 ± 0.06
GGGGTTCACC	0.957 ± 0.023
TTTCCACGGG	1.18 ± 0.025
GCGGGTCATG	0.981 ± 0.021
CTTTAGCCGG	1.02 ± 0.049
GTATGTCGGT	0.997 ± 0.051

Sequence	switch fluorescence ratio
AGGTAAGTGC	1.025 ± 0.0017
GATCGACTGG	1.029 ± 0.0075
AAAGTGCTCC	1.095 ± 0.0075
CGTCTACATG	1.03 ± 0.027
CTCGTTGAAG	0.979 ± 0.032
TTAGCGGTGT	1.07 ± 0.14
CAATTTTTTT	1.08 ± 0.12
TTTATGTGGA	1.01 ± 0.027
TAAAATGGTG	1.01 ± 0.035
CTTGTTTGGG	1 ± 0.039
AGATATTTTT	0.975 ± 0.023
CATAGGGACG	0.989 ± 0.083
ATGAATATTA	0.99254 ± 0.00014
TTGCTTACTT	0.996 ± 0.019
CGTTTACGCC	1 ± 0.046
ATACACGGCG	1.045 ± 0.0087
TAAGAGATAG	0.976 ± 0.012
TTTTCGGGTT	1 ± 0.04
GTTACTTTGT	0.992 ± 0.0075
CCTTTGGGCA	1.05 ± 0.023
TTATTTAGGG	0.991 ± 0.0055
TGTAGGGGTG	0.987 ± 0.016
CGGTAACAAA	1.01 ± 0.019
CAGGGATTAA	0.9842 ± 0.0036
GTGATTTTTT	1.01 ± 0.019

Sequence	switch fluorescence ratio
GGCGGGGACC	0.982 ± 0.025
TTCATAGTCG	0.98 ± 0.07
GATGGGAGGT	1.008 ± 0.0046
TTTGGTTTCC	1.01 ± 0.053
GTGGGACGGG	1.03 ± 0.056
TTAGATGGTG	1.02 ± 0.033
AGATGGGGCC	1 ± 0.027
GGTTCTTAGG	1.01 ± 0.032
AGGGTGAATG	1 ± 0.0097
ATATGTTATG	0.982 ± 0.015
AATAAGGT	1.003 ± 0.0056
AGCTTGGACC	1.009 ± 0.0084
AAGTTTACAT	1.01 ± 0.026
CCCGGTATCG	0.983 ± 0.013
AGAAATCGGA	1.038 ± 0.0056
GTGACAGGGG	1.05 ± 0.033
AGATGTTAGG	0.981 ± 0.029
AGTAAATCCT	1.16 ± 0.0084
GATATATTAT	1.017 ± 0.0038
TTTGATGAGA	1 ± 0.028
ACTTTTTTT	1 ± 0.0022
CGAATGGCCC	1 ± 0.012
TACGGCTAAG	1.07 ± 0.047
CAGACCCCAT	1.06 ± 0.035
ATTTTCTTAG	0.999 ± 0.018

Sequence	switch fluorescence ratio
TCGTGTACGG	1.04 ± 0.016
GGGGGCCGGA	1.01 ± 0.048
AAAACATTTT	1.03 ± 0.049
AGGGGGGGGT	1 ± 0.05
TTACACAGGT	1.12 ± 0.067
AAGGTTGGGG	0.994 ± 0.017
GCCATCCTGC	1.05 ± 0.042
TTTTCTTGGT	1.01 ± 0.012
GAGGCATTGC	1.65 ± 0.24
GGCTGTATTT	0.9965 ± 0.0031
AGGGAAAGTC	0.9854 ± 0.0058
TCATATTGCG	0.983 ± 0.019
AATAGGGGAC	1.01 ± 0.016
GGTAGGCAGG	1 ± 0.021
CATTGCTTGG	1.039 ± 0.0012
GTTGGTTAGG	0.959 ± 0.0071
TGTCAGGGGT	1.03 ± 0.043
CGGGCAGCTG	1.04 ± 0.048
AGAAGTAAGA	0.998 ± 0.0065
TTAGTTGGAC	1.03 ± 0.038
TCATGGTTG	1.01 ± 0.01
ATTGGAAGAC	1.06 ± 0.12
CCCGAGTATG	1.034 ± 0.0099
ATATTTTATG	1.03 ± 0.044
TACAGAGGTT	1.01 ± 0.059
